Test results as given in patent publication US20160193316A1 (priority 1994, published 2016).
Where two headings read alike, the source gives them in different places.

Experiments:
[1] = molecular target: T1, DRB1*0101 (DR1) (Homo sapiens, UniProt P01903+P01911, A100R/D57E/F55L/F60I/F76Y/I96L/L162R/M171V/P40L/Q125E/R42F/V115G/Y59C); test: HLA class II peptide binding assay; conditions: for DR1 binding data: Table XIXb, Malaria Super Motif Peptides With Binding Data
T1 construct: endogenous in cells; host or cells: LG2

[2] = molecular target: T2, DRB1*0301 (DR3) (Homo sapiens, UniProt P01903+P01911, A100K/A102G/A103R/A169T/F55Y/I96L/K41T/L162R/M171V/P40S/Q125H/Q178H/Q39Y/R42S/S66N/T106N/T262R/W38E/Y61H); test: HLA class II peptide binding assay (pH 4.5); conditions: for DR3 binding data: Table XIXb
T2 construct: endogenous in cells; host or cells: MAT

[3] = molecular target: T3, DRB1*0401 (DR4w4) (Homo sapiens, UniProt P01903+P01911, A100K/A169T/F76Y/I96L/K127E/L162R/M171V/N62H/P40V/Q125Y/R42H/S133A/S149N/S66Y/V115G/V209L/W38E); test: HLA class II peptide binding assay; conditions: for DR4w4 binding data: Table XIXb
T3 construct: endogenous in cells; host or cells: Preiss

[4] = molecular target: T4, DRB1*0405 (DR4w15) (Homo sapiens, UniProt P01903+P01911, A100R/A169T/D86S/F76Y/I96L/K127E/L162R/M171V/N62H/P40V/Q125Y/R42H/S133A/S149N/S66Y/V115G/V209L/W38E); test: HLA class II peptide binding assay; conditions: for DR4w15 binding data: Table XIXb
T4 construct: endogenous in cells; host or cells: KT3

[5] = molecular target: T5, DRB1*0701 (DR7) (Homo sapiens, UniProt P01903+P01911, A100R/A102G/A103Q/D57E/D86V/E43K/F76Y/K127E/L162R/M171V/P40G/Q125H/Q99D/R33Q/R42Y/R54Q/S133A/S66F/T210M/V115G/Y107V/Y59L/Y89S); test: biochemical; assay type: binding
T5 construct: endogenous in cells; host or cells: Pitout

[6] = molecular target: T6, DRB1*0802 (DR8w2) (Homo sapiens, UniProt P01903+P01911, A100R/A103L/A169T/F76Y/H45Y/I96F/K41T/L162R/M171V/P40S/Q125H/Q178H/Q39Y/Q99D/R218S/R42G/S66Y/V115G/W38E); test: biochemical; assay type: binding
T6 construct: endogenous in cells; host or cells: OLL

[7] = molecular target: T7, DRB1*0901 (DR9) (Homo sapiens, UniProt P01903+P01911, A100R/A103E/D57H/D86V/F55Y/F60I/F76Y/I96F/K127E/L162R/M171V/P40D/Q125H/Q99R/R33Q/R42F/S133A/S66N/T210M/V115G/W38K/Y107V/Y59G/Y89S); test: biochemical; assay type: binding
T7 construct: endogenous in cells; host or cells: HID

[8] = molecular target: T8, DRB1*1101 (DR5w11) (Homo sapiens, UniProt P01903+P01911, A100R/A169T/A87E/I96F/K41T/L162R/M171V/P40S/Q125H/Q178H/Q39Y/Q99D/R42S/S66Y/T262R/V115G/W38E); test: biochemical; assay type: binding
T8 construct: endogenous in cells; host or cells: Sweig

[9] = molecular target: T9, DRB1*1201 (DR5w12) (Homo sapiens, UniProt P01903+P01911, A100R/A169T/D57E/D86V/F55L/H45Y/K41T/L162R/M171V/P40S/Q125H/Q178H/Q39Y/Q99D/R42G/S66L/T262R/V114A/V67L/W38E/Y59H/Y61H/Y89S); test: HLA class II peptide binding assay; conditions: for DR5w12 binding data: Table XIXb
T9 construct: endogenous in cells; host or cells: Herluf

[10] = molecular target: T10, DRB1*1302 (DR6w19) (Homo sapiens, UniProt P01903+P01911, A100E/A169T/K41T/L162R/M171V/P40S/Q125H/Q178H/Q39Y/Q99D/R42S/S66N/T262R/V115G/W38E/Y61H); test: HLA class II peptide binding assay; conditions: Table XIXb; DR6w19
T10 construct: endogenous in cells; host or cells: H0301

[11] = molecular target: T11, DRB1*1501 (DR2w2β1) (Homo sapiens, UniProt P01903+P01911); test: HLA class II peptide binding assay; conditions: Table XIXb; DR2w2β1
T11 construct: expressed in transfected cells; host or cells: L466.1 (fibroblasts)

[12] = molecular target: T12, DRB4*0101 (DRw53) (Homo sapiens, UniProt P01903+P13762, G164S); test: HLA class II peptide binding assay (pH 5.0); conditions: for DRw53 binding data: Table XIXb
T12 construct: expressed in transfected cells; host or cells: L257.6 (fibroblasts)

[13] = molecular target: T13, DRB5*0101 (DR2w2β2) (Homo sapiens, UniProt P01903+Q30154); assay type: binding
T13 construct: expressed in transfected cells; host or cells: L416.3 (fibroblasts) or GM3107

[14] = molecular target: T14, HLA-B*0702 (Homo sapiens, UniProt P01889); test: HLA class I peptide binding assay; conditions: Malaria B07 super motif peptides; binding value, no unit
T14 construct: endogenous in cells; host or cells: GM3107

[15] = molecular target: HLA-A*0201 (Homo sapiens, UniProt P04439, D140Y/D185E/D98H/E176V/E277Q/G131W/G231S/I119V/I121R/I166T/I218V/L300P/L318F/N151K/N90K/P208A/P217A/Q86G/Q94H/R138H/R169H/T345S); test: HLA class I peptide binding assay
[16] = Malaria A02 motif peptides, Table VIII, unit not given
[17] = DR3a motif peptides, unit not given, exemplary 15-mer containing the core sequence

T1 sequence (P01903 26-254 partner, other chains not shown): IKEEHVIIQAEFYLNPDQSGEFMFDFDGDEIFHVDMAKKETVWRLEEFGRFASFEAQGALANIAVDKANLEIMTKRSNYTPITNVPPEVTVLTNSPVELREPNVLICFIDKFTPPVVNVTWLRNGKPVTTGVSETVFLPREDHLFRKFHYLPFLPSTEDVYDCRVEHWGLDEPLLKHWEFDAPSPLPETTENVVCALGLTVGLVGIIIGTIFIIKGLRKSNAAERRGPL
T3 sequence (P01903 26-254 partner, other chains not shown): as above
T10 sequence (P01903 26-254, other chains not shown): as the sequence (P01903 26-254 partner, other chains not shown) above
T8 sequence (P01903 26-254, other chains not shown): as the sequence (P01903 26-254 partner, other chains not shown) above

Row | Sequence | DR1 binding data [1] | DR3 binding data [2] | DR4w4 binding data [3] | DR4w15 binding data [4] | DR7 binding data [5] | DR8w2 binding data [6] | DR9 binding data [7] | DR5w11 binding data [8] | DR5w12 binding data [9] | DR6w19 binding data [10] | DR2w2β1 binding data [11] | DRw53 binding data [12] | DR2w2β2 binding data [13] | A*0201 (binding information) [15, 16] | also measured
1 | YQNNIVDEI | 0.0001 | 0.0026 | -0.0006 | -0.0014 | -0.0003 | -0.0003 | -0.0005 | -0.0004 | 0.0001 | 0.0810 | 0.0001 | 0.0850 | -0.0006 |  | 
2 | TPYAGEPAPF |  |  |  |  |  |  |  |  |  |  |  |  |  |  | B*0702 (binding information) [14]: 0.0990
3 | VSTVLLGGV | 0.0140 | -0.0008 | 0.0016 | -0.0014 | -0.0003 | -0.0003 | -0.0005 | -0.0002 | 0.0005 | 0.0006 | 0.0001 | -0.0005 | -0.0005 |  | 
4 | VLLGGVCLVL |  |  |  |  |  |  |  |  |  |  |  |  |  | 0.0290 | 
5 | LTMSNVKNV | 0.0018 | 0.0058 | 0.0023 | 0.0074 | 0.0410 | 0.0110 | 0.0710 | 0.0030 | 0.0001 | 0.0430 | 0.0003 | 0.0024 | 0.0009 | 0.0010 | 
6 | LIFFDLFLV | 0.0006 | -0.0008 | 0.0130 | -0.0009 | 0.0028 | 0.0007 | -0.0003 | 0.0019 | 0.0016 | 0.0006 | 0.0048 |  | 0.0019 | 0.0890 | 
7 | FMKAVCVEV | 0.0072 | -0.0008 | -0.0006 | 0.0086 | 0.0019 | -0.0003 | 0.0820 | -0.0004 | 0.0038 | 0.0003 | 0.0003 | 0.0700 | 0.0430 | 0.0290 | 
8 | LAGGLALLA |  |  |  |  |  |  |  |  |  |  |  |  |  | 0.0001 | 
9 | GLIMVLSFL |  |  |  |  |  |  |  |  |  |  |  |  |  |  | A*0201 (binding information) [15]: 0.0630
10 | VPGAAIPYA |  |  |  |  |  |  |  |  |  |  |  |  |  |  | B*0702 (binding information) [14]: 0.0001
11 | KLRICPICHKKL |  |  |  |  |  |  |  |  |  |  |  |  |  | 0.0001 | 
12 | LLMDCSGSI |  |  |  |  |  |  |  |  |  |  |  |  |  | 0.0460 | DR1 binding information [1, 17]: 0.0041; DR3 binding information [2, 17]: 0.0300; DR4w4 binding information [3, 17]: 0.0340; DR4w15 binding information [4, 17]: 0.0028; DR7 binding information [5]: 0.0072; DR8w2 binding information [6]: 0.0014; DR5w11 binding information [8]: -0.0002; DR5w12 binding information [9, 17]: 0.0001; DRw53 binding information [12, 17]: 0.0057; DR2w2β2 binding information [13]: 0.0250
